Reference: US20240043883A1 (Board of Trustees of Michigan State University, priority 2021, published 2024)

Experiments:
[1] = substrate: C#CC(=O)O; experiment: purified protein, by the assay type; type: biochemical, Corynebacterium glutamicum; settings: other: ACA, 100 mM sodium phosphate pH 8.0, 25 °C
Protocol: (§1) Steady-state kinetics were carried out using a Molecular Devices SpectraMax iD3 multi-mode microplate reader and Shimadzu UV2600 spectrophotometer. All assays were carried out in triplicate at 25° C. in 100 mM sodium phosphate pH 8.0 with a final volume of 200 μL, unless otherwise specified. The reduction of acetaldehyde by NADH-dependent alcohol dehydrogenase (ADH) was monitored by following the oxidation of NADH at 340 nm (ε=6220 M^−1 cm^−1).
(§2) All stock solutions, except ADH, required for the kinetics assays used for determining hydratase and hydratase/decarboxylase activities were prepared in 100 mM sodium phosphate pH 8.0. […] Stock solutions of ADH were prepared using deionized water, as recommended by the manufacturer. […] The final pH of each assay was 8.
(§3) The amount of enzyme used in each assay was varied in order to observe measurable activity. Thus, the rates obtained from this experiment were not used directly to compare the enzyme activity. These activities were only used for establishing the product profile of each enzyme. The ratios of MSA and acetaldehyde formed by each enzyme was determined by the coupled enzyme assay (FIG. 13), using the differences in rates in the presence and absence of MSAD (Table 10). […] All other components used for steady-state kinetics were identical to those used in the initial screening assays.

[2] = Coupled enzyme assay (ADH, with and without MSAD): hydratase and hydratase/decarboxylase activity and product profile of Cg10062 and variants; type: biochemical; settings: for Rate in the absence of MSAD / Rate in the presence of MSAD: ACA 0.5 mM, pH 8, enzyme final concentration differs per variant (0.025-1.50 mg mL^−1), rates not directly comparable; for Product Ratio (%) acetaldehyde / Product Ratio (%) malonate semialdehyde: from Cg10062 activity in the presence and absence of MSAD; for Product Ratio (%) acetaldehyde: * from non-enzymatic decarboxylation of malonate semialdehyde; for Product Ratio (%) malonate semialdehyde: ACA substrate, pH 8.0, 25° C.
Protocol: as §1, §2, §3

Molecule	Rate in the absence of MSAD [2]	Rate in the presence of MSAD [2]	other results
Corynebacterium glutamicum Cg10062 variant E114Q, SEQ ID NO: 60 (Corynebacterium glutamicum ATCC 13032; E115Q) (protein) PTYTCWSQRIRISREAKQRIAEAITDAHHELAHAPKYLVQVIFNEVEPDSYFIAAQSASENHIWVQATIRSGRTEKQKEELLLRLTQEIALILGIPNEEVWVYITEIPGSNMTQYGRLLMEPGEEEKWFNSLPEGLRERLTELEGSSEENLYFQGLEHHHHHH			Km [1]: 64 ± 12 µM; kcat [1]: 0.66 ± 0.04 s⁻¹; kcat/Km [1]: 10800 ± 2100 M⁻¹ s⁻¹
Corynebacterium glutamicum Cg10062 variant E114D, SEQ ID NO: 61 (Corynebacterium glutamicum ATCC 13032; E115D) (protein) PTYTCWSQRIRISREAKQRIAEAITDAHHELAHAPKYLVQVIFNEVEPDSYFIAAQSASENHIWVQATIRSGRTEKQKEELLLRLTQEIALILGIPNEEVWVYITEIPGSNMTDYGRLLMEPGEEEKWFNSLPEGLRERLTELEGSSEENLYFQGLEHHHHHH			Km [1]: 557 ± 62 µM; kcat [1]: 1.12 ± 0.05 s⁻¹; kcat/Km [1]: 2000 ± 200 M⁻¹ s⁻¹
Cg10062(E114N): Novel hydratase-only Cg10062 variant with E114N mutation, SEQ ID NO: 24 and 62 (protein, Cg10062(E114N) from Corynebacterium glutamicum codon-optimized for Escherichia coli) PTYTCWSQRIRISREAKQRIAEAITDAHHELAHAPKYLVQVIFNEVEPDSYFIAAQSASENHIWVQATIRSGRTEKQKEELLLRLTQEIALILGIPNEEVWVYITEIPGSNMTNYGRLLMEPGEEEKWFNSLPEGLRERLTELEGSSE	no activity	67 µM/min	Product Ratio (%) acetaldehyde [2]: <1* %; Product Ratio (%) malonate semialdehyde [2]: >99%; product of ACA hydration ([2]; in words): produces only malonic semialdehyde
H28A: Cg10062 variant with H28A mutation, SEQ ID NO: 25 and 63 (protein, Cg10062(H28A) from Corynebacterium glutamicum codon-optimized for Escherichia coli) PTYTCWSQRIRISREAKQRIAEAITDAAHELAHAPKYLVQVIFNEVEPDSYFIAAQSASENHIWVQATIRSGRTEKQKEELLLRLTQEIALILGIPNEEVWVYITEIPGSNMTEYGRLLMEPGEEEKWFNSLPEGLRERLTELEGSSE	4.5 µM/min	12 µM/min	
Cg10062(E114D-Y103F): Cg10062 double variant E114D-Y103F, SEQ ID NO: 33 and 71 (protein, Cg10062(E114D-Y103F) from Corynebacterium glutamicum codon-optimized for Escherichia coli) PTYTCWSQRIRISREAKQRIAEAITDAHHELAHAPKYLVQVIFNEVEPDSYFIAAQSASENHIWVQATIRSGRTEKQKEELLLRLTQEIALILGIPNEEVWVFITEIPGSNMTDYGRLLMEPGEEEKWFNSLPEGLRERLTELEGSSE	no activity	39 µM/min	Product Ratio (%) acetaldehyde [2]: <1* %; Product Ratio (%) malonate semialdehyde [2]: >99%
Y103F: Cg10062 variant with Y103F mutation, SEQ ID NO: 31 and 69 (protein, Cg10062(Y103F) from Corynebacterium glutamicum codon-optimized for Escherichia coli) PTYTCWSQRIRISREAKQRIAEAITDAHHELAHAPKYLVQVIFNEVEPDSYFIAAQSASENHIWVQATIRSGRTEKQKEELLLRLTQEIALILGIPNEEVWVFITEIPGSNMTEYGRLLMEPGEEEKWFNSLPEGLRERLTELEGSSE	43 µM/min	65 µM/min	
Y103A: Cg10062 variant with Y103A mutation, SEQ ID NO: 30 and 68 (protein, Cg10062(Y103A) from Corynebacterium glutamicum codon-optimized for Escherichia coli) PTYTCWSQRIRISREAKQRIAEAITDAHHELAHAPKYLVQVIFNEVEPDSYFIAAQSASENHIWVQATIRSGRTEKQKEELLLRLTQEIALILGIPNEEVWVAITEIPGSNMTEYGRLLMEPGEEEKWFNSLPEGLRERLTELEGSSE	16 µM/min	38 µM/min	
E114A: Cg10062 variant with E114A mutation, SEQ ID NO: 32 and 70 (protein, Cg10062(E114A) from Corynebacterium glutamicum codon-optimized for Escherichia coli) PTYTCWSQRIRISREAKQRIAEAITDAHHELAHAPKYLVQVIFNEVEPDSYFIAAQSASENHIWVQATIRSGRTEKQKEELLLRLTQEIALILGIPNEEVWVYITEIPGSNMTAYGRLLMEPGEEEKWFNSLPEGLRERLTELEGSSE	11 µM/min	15 µM/min	
R70K: Cg10062 variant with R70K mutation, SEQ ID NO: 27 and 65 (protein, Cg10062(R70K) from Corynebacterium glutamicum codon-optimized for Escherichia coli) PTYTCWSQRIRISREAKQRIAEAITDAHHELAHAPKYLVQVIFNEVEPDSYFIAAQSASENHIWVQATIKSGRTEKQKEELLLRLTQEIALILGIPNEEVWVYITEIPGSNMTEYGRLLMEPGEEEKWFNSLPEGLRERLTELEGSSE	no activity	no activity	
R73A: Cg10062 variant with R73A mutation, SEQ ID NO: 28 and 66 (protein, Cg10062(R73A) from Corynebacterium glutamicum codon-optimized for Escherichia coli) PTYTCWSQRIRISREAKQRIAEAITDAHHELAHAPKYLVQVIFNEVEPDSYFIAAQSASENHIWVQATIRSGATEKQKEELLLRLTQEIALILGIPNEEVWVYITEIPGSNMTEYGRLLMEPGEEEKWFNSLPEGLRERLTELEGSSE	no activity	no activity	
R70A: Cg10062 variant with R70A mutation, SEQ ID NO: 26 and 64 (protein, Cg10062(R70A) from Corynebacterium glutamicum codon-optimized for Escherichia coli) PTYTCWSQRIRISREAKQRIAEAITDAHHELAHAPKYLVQVIFNEVEPDSYFIAAQSASENHIWVQATIASGRTEKQKEELLLRLTQEIALILGIPNEEVWVYITEIPGSNMTEYGRLLMEPGEEEKWFNSLPEGLRERLTELEGSSE	no activity	no activity	
